Results reported in publication doi:10.1101/2023.02.23.529587 (bioRxiv, 2023).

B3: full-length OdhA from Corynebacterium glutamicum ATCC13032 (enzyme, UniProt Q8NRC3 1-1221, looked up)
chain: MSSASTFGQNAWLVDEMFQQFQKDPKSVDKEWRELFEAQGGPNTTPATTEAQPSAPKESAKPAPKAAPAAKAAPRVETKPADKTAPKAKESSVPQQPKLPEPGQTPIRGIFKSIAKNMDISLEIPTATSVRDMPARLMFENRAMVNDQLKRTRGGKISFTHIIGYAMVKAVMAHPDMNNSYDVIDGKPTLIVPEHINLGLAIDLPQKDGSRALVVAAIKETEKMNFSEFLAAYEDIVARSRKGKLTMDDYQGVTVSLTNPGGIGTRHSVPRLTKGQGTIIGVGSMDYPAEFQGASEDRLAELGVGKLVTITSTYDHRVIQGAVSGEFLRTMSRLLTDDSFWDEIFDAMNVPYTPMRWAQDVPNTGVDKNTRVMQLIEAYRSRGHLIADTNPLSWVQPGMPVPDHRDLDIETHNLTIWDLDRTFNVGGFGGKETMTLREVLSRLRAAYTLKVGSEYTHILDRDERTWLQDRLEAGMPKPTQAEQKYILQKLNAAEAFENFLQTKYVGQKRFSLEGAEALIPLMDSAIDTAAGQGLDEVVIGMPHRGRLNVLFNIVGKPLASIFNEFEGQMEQGQIGGSGDVKYHLGSEGQHLQMFGDGEIKVSLTANPSHLEAVNPVMEGIVRAKQDYLDKGVDGKTVVPLLLHGDAAFAGLGIVPETINLAKLRGYDVGGTIHIVVNNQIGFTTTPDSSRSMHYATDYAKAFGCPVFHVNGDDPEAVVWVGQLATEYRRRFGKDVFIDLVCYRLRGHNEADDPSMTQPKMYELITGRETVRAQYTEDLLGRGDLSNEDAEAVVRDFHDQMESVFNEVKEGGKKQAEAQTGITGSQKLPHGLETNISREELLELGQAFANTPEGFNYHPRVAPVAKKRVSSVTEGGIDWAWGELLAFGSLANSGRLVRLAGEDSRRGTFTQRHAVAIDPATAEEFNPLHELAQSKGNNGKFLVYNSALTEYAGMGFEYGYSVGNEDSIVAWEAQFGDFANGAQTIIDEYVSSGEAKWGQTSKLILLLPHGYEGQGPDHSSARIERFLQLCAEGSMTVAQPSTPANHFHLLRRHALSDLKRPLVIFTPKSMLRNKAAASAPEDFTEVTKFQSVINDPNVADAAKVKKVMLVSGKLYYELAKRKEKDGRDDIAIVRIEMLHPIPFNRISEALAGYPNAEEVLFVQDEPANQGPWPFYQEHLPELIPNMPKMRRVSRRAQSSTATGVAKVHQLEEKQLIDEAFEA

Columns and labels:
[1] = target: the molecule itself; assay: crystal structure
[2] = target: the molecule itself; assay: crystal structure; remark: listed apart in the source
[3] = target: the molecule itself; assay: AUC
[4] = target: B3; assay: cryo-EM structure

B1: OdhAΔ97 (domain or fragment, Corynebacterium glutamicum ATCC13032, UniProt Q8NRC3 98-1221, looked up)
chain: KLPEPGQTPIRGIFKSIAKNMDISLEIPTATSVRDMPARLMFENRAMVNDQLKRTRGGKISFTHIIGYAMVKAVMAHPDMNNSYDVIDGKPTLIVPEHINLGLAIDLPQKDGSRALVVAAIKETEKMNFSEFLAAYEDIVARSRKGKLTMDDYQGVTVSLTNPGGIGTRHSVPRLTKGQGTIIGVGSMDYPAEFQGASEDRLAELGVGKLVTITSTYDHRVIQGAVSGEFLRTMSRLLTDDSFWDEIFDAMNVPYTPMRWAQDVPNTGVDKNTRVMQLIEAYRSRGHLIADTNPLSWVQPGMPVPDHRDLDIETHNLTIWDLDRTFNVGGFGGKETMTLREVLSRLRAAYTLKVGSEYTHILDRDERTWLQDRLEAGMPKPTQAEQKYILQKLNAAEAFENFLQTKYVGQKRFSLEGAEALIPLMDSAIDTAAGQGLDEVVIGMPHRGRLNVLFNIVGKPLASIFNEFEGQMEQGQIGGSGDVKYHLGSEGQHLQMFGDGEIKVSLTANPSHLEAVNPVMEGIVRAKQDYLDKGVDGKTVVPLLLHGDAAFAGLGIVPETINLAKLRGYDVGGTIHIVVNNQIGFTTTPDSSRSMHYATDYAKAFGCPVFHVNGDDPEAVVWVGQLATEYRRRFGKDVFIDLVCYRLRGHNEADDPSMTQPKMYELITGRETVRAQYTEDLLGRGDLSNEDAEAVVRDFHDQMESVFNEVKEGGKKQAEAQTGITGSQKLPHGLETNISREELLELGQAFANTPEGFNYHPRVAPVAKKRVSSVTEGGIDWAWGELLAFGSLANSGRLVRLAGEDSRRGTFTQRHAVAIDPATAEEFNPLHELAQSKGNNGKFLVYNSALTEYAGMGFEYGYSVGNEDSIVAWEAQFGDFANGAQTIIDEYVSSGEAKWGQTSKLILLLPHGYEGQGPDHSSARIERFLQLCAEGSMTVAQPSTPANHFHLLRRHALSDLKRPLVIFTPKSMLRNKAAASAPEDFTEVTKFQSVINDPNVADAAKVKKVMLVSGKLYYELAKRKEKDGRDDIAIVRIEMLHPIPFNRISEALAGYPNAEEVLFVQDEPANQGPWPFYQEHLPELIPNMPKMRRVSRRAQSSTATGVAKVHQLEEKQLIDEAFEA
Q: How did the “stoichiometry N” value [1] turn out when B1 was run?
A: Its value is 6.

B2: full-length KGD from Mycobacterium smegmatis (enzyme, UniProt A0R2B1 1-1227, looked up)
chain: MSSSPSPFGQNEWLVEEMYRKFRDDPSSVDPSWHEFLVDYSPEPTTDSASNGRTTTAAPVTPPTPAPAPAPEPKAAPKPAAKTEAKPAKPAKSATPAKGDESQILRGAAAAVVKNMNASLEVPTATSVRAIPAKLMIDNRVVINNHLKRTRGGKISFTHLLGYAIVQAVKKFPNMNRHFAVVDGKPTAITPAHTNLGLAIDLQGKDGNRSLVVAAIKRCETMRFGQFIAAYEDIVRRARDGKLTAEDFSGVTISLTNPGTLGTVHSVPRLMQGQGAIIGAGAMEYPAEFQGASEERIADLGIGKLITLTSTYDHRIIQGAESGDFLRTIHQLLLDDDFFDEIFRELGIPYEPVRWRTDNPDSIEDKNARVIELIAAYRNRGHLMADIDPLRLDNTRFRSHPDLDVNSHGLTLWDLDREFKVDGFAGVQRKKLRDILSVLRDAYCRHVGVEYTHILEPEQQRWIQERVETKHDKPTVAEQKYILSKLNAAEAFETFLQTKYVGQKRFSLEGAETVIPMMDAVIDQCAEHGLDEVVIAMPHRGRLNVLANIVGKPYSQIFSEFEGNLNPSQAHGSGDVKYHLGATGTYIQMFGDNDIEVSLTANPSHLEAVDPVLEGLVRAKQDLLDTGEEGSDNRFSVVPLMLHGDAAFAGQGVVAETLNLALLRGYRTGGTIHIVVNNQIGFTTAPTDSRSSEYCTDVAKMIGAPIFHVNGDDPEACAWVARLAVDFRQAFKKDVVIDMLCYRRRGHNEGDDPSMTQPYMYDVIDTKRGSRKAYTEALIGRGDISMKEAEDALRDYQGQLERVFNEVRELEKHEIEPSESVEADQQIPSKLATAVDKAMLQRIGDAHLALPEGFTVHPRVRPVLEKRREMAYEGRIDWAFAELLALGSLIAEGKLVRLSGQDTQRGTFTQRHAVIVDRKTGEEFTPLQLLATNPDGTPTGGKFLVYNSALSEFAAVGFEYGYSVGNPDAMVLWEAQFGDFVNGAQSIIDEFISSGEAKWGQLSDVVLLLPHGHEGQGPDHTSGRIERFLQLWAEGSMTIAMPSTPANYFHLLRRHGKDGIQRPLIVFTPKSMLRNKAAVSDIRDFTESKFRSVLEEPMYTDGEGDRNKVTRLLLTSGKIYYELAARKAKENREDVAIVRIEQLAPLPRRRLAETLDRYPNVKEKFWVQEEPANQGAWPSFGLTLPEILPDHFTGLKRISRRAMSAPSSGSSKVHAVEQQEILDTAFG
Q: With B2 as the binder, how does the “stoichiometry N” value [2] read?
A: The value was 6.

Q: How did the “stoichiometry N” value [3] turn out when B3 was run?
A: Its value is 6.

B4: OdhI from Corynebacterium glutamicum ATCC13032 (natural protein, UniProt Q8NQJ3 1-143, looked up)
chain: MSDNNGTPEPQVETTSVFRADLLKEMESSTGTAPASTGAENLPAGSALLVVKRGPNAGARFLLDQPTTTAGRHPESDIFLDDVTVSRRHAEFRINEGEFEVVDVGSLNGTYVNREPRNAQVMQTGDEIQIGKFRLVFLAGPAE
Q: B4 was tested. Which “stoichiometry N” value [4] did it give?
A: Its value is 1.
